# Laboratory results from patent US20150139999A1 (RUTGERS THE STATE UNIVERSITY OF NEW JERSEY, published 2015).
# B1: [^32P]-His-Strep-IFN-λ1-P (secreted human IFN-λ1 with N-terminal His-Strep tag and C-terminal phosphorylation site) (ligand)
# chain: HHHHHHPDHWSHPQFEKGPVPTSKPTTTGKGCHIGRFKSLSPQELASFKKARDALEESLKLKNWSCSSPVFPGNWDLRLLQVRERPVALEAELALTLKVLEAAAGPALEDVLDQPLHTLHHILSQLQACIQPQPTAGPRPRGRLHHWLHRLQEAPKKESAGCLEASVTFNLFRLLTRDLKYVADGNLCLRTSTHPESTRRASVA
# notes: mature; also called His-Strep-IFN-λ1J-P
# Target: T1, B18-FL (Vaccinia virus strain Western Reserve B18 protein with a FLAG epitope at the C terminus, sec (Vaccinia virus strain Western Reserve, UniProt P25213 20-351))
# T1 construct: mature
# Experiment: covalent crosslinking in solution, SDS-PAGE
binder,measurement,value
B1,binding result,no binding
